According to paper PMC4036362, “Normal Activation of Discoidin Domain Receptor 1 Mutants with Disulfide Cross-links, Insertions, or Deletions in the Extracellular Juxtamembrane Region” (The Journal of Biological Chemistry, 2014):

Target: the molecule itself
Assay: cross-linking; disulfide cross-linking of introduced cysteines in transiently transfected HEK293 cells, untreated or with 10 ug/ml collagen I for 90 min at 37 °C; lysis in 1% Nonidet P-40 buffer with NEM; nonreducing SDS-PAGE on 5% gels, Western blot with anti-DDR1; efficiency as percent dimeric of total DDR1

B1: DDR1 residue 415 to cysteine (in the C287S background) (receptor, human, UniProt Q08345 19-913, looked up)
chain: DADMKGHFDPAKCRYALGMQDRTIPDSDISASSSWSDSTAARHSRLESSDGDGAWCPAGSVFPKEEEYLQVDLQRLHLVALVGTQGRHAGGLGKEFSRSYRLRYSRDGRRWMGWKDRWGQEVISGNEDPEGVVLKDLGPPMVARLVRFYPRADRVMSVCLRVELYGCLWRDGLLSYTAPVGQTMYLSEAVYLNDSTYDGHTVGGLQYGGLGQLADGVVGLDDFRKSQELRVWPGYDYVGWSNHSFSSGYVEMEFEFDRLRAFQAMQVHSNNMHTLGARLPGGVECRFRRGPAMAWEGEPMRHNLGGNLGDPRARAVSVPLGGRVARFLQCRFLFAGPWLLFSEISFISDVVNNSSPALGGTFPPAPWWPPGPPPTNFSSLELEPRGQQPVAKAEGSCTAILIGCLVAIILLLLLIIALMLWRLHWRRLLSKAERRVLEEELTVHLSVPGDTILINNRPGPREPPPYQEPRPRGNPPHSAPCVPNGSALLLSNPAYRLLLATYARPPRGPGPPTPAWAKPTNTQAYSGDYMEPEKPGAPLLPPPPQNSVPHYAEADIVTLQGVTGGNTYAVPALPPGAVGDGPPRVDFPRSRLRFKEKLGEGQFGEVHLCEVDSPQDLVSLDFPLNVRKGHPLLVAVKILRPDATKNARNDFLKEVKIMSRLKDPNIIRLLGVCVQDDPLCMITDYMENGDLNQFLSAHQLEDKAAEGAPGDGQAAQGPTISYPMLLHVAAQIASGMRYLATLNFVHRDLATRNCLVGENFTIKIADFGMSRNLYAGDYYRVQGRAVLPIRWMAWECILMGKFTTASDVWAFGVTLWEVLMLCRAQPFGQLTDEQVIENAGEFFRDQGRQVYLSRPPACPQGLYELMLRCWSRESEQRPPFSQLHRFLAEDALNTV
notes: discoidin domain receptor 1, isoform DDR1b, human; full-length cDNA in pRK5; The text gives only the range V408C to A417C (10 single mutants); also called one of the 10 mutants V408C to A417C; source: HEK293, transiently transfected, in lysate
dimerization efficiency (percent dimeric of total DDR1): > 70%

B2: DDR1 residue 420 to cysteine (in the C287S background) (receptor, human, UniProt Q08345 19-913, looked up)
chain: DADMKGHFDPAKCRYALGMQDRTIPDSDISASSSWSDSTAARHSRLESSDGDGAWCPAGSVFPKEEEYLQVDLQRLHLVALVGTQGRHAGGLGKEFSRSYRLRYSRDGRRWMGWKDRWGQEVISGNEDPEGVVLKDLGPPMVARLVRFYPRADRVMSVCLRVELYGCLWRDGLLSYTAPVGQTMYLSEAVYLNDSTYDGHTVGGLQYGGLGQLADGVVGLDDFRKSQELRVWPGYDYVGWSNHSFSSGYVEMEFEFDRLRAFQAMQVHSNNMHTLGARLPGGVECRFRRGPAMAWEGEPMRHNLGGNLGDPRARAVSVPLGGRVARFLQCRFLFAGPWLLFSEISFISDVVNNSSPALGGTFPPAPWWPPGPPPTNFSSLELEPRGQQPVAKAEGSPTAILCGCLVAIILLLLLIIALMLWRLHWRRLLSKAERRVLEEELTVHLSVPGDTILINNRPGPREPPPYQEPRPRGNPPHSAPCVPNGSALLLSNPAYRLLLATYARPPRGPGPPTPAWAKPTNTQAYSGDYMEPEKPGAPLLPPPPQNSVPHYAEADIVTLQGVTGGNTYAVPALPPGAVGDGPPRVDFPRSRLRFKEKLGEGQFGEVHLCEVDSPQDLVSLDFPLNVRKGHPLLVAVKILRPDATKNARNDFLKEVKIMSRLKDPNIIRLLGVCVQDDPLCMITDYMENGDLNQFLSAHQLEDKAAEGAPGDGQAAQGPTISYPMLLHVAAQIASGMRYLATLNFVHRDLATRNCLVGENFTIKIADFGMSRNLYAGDYYRVQGRAVLPIRWMAWECILMGKFTTASDVWAFGVTLWEVLMLCRAQPFGQLTDEQVIENAGEFFRDQGRQVYLSRPPACPQGLYELMLRCWSRESEQRPPFSQLHRFLAEDALNTV
notes: discoidin domain receptor 1, isoform DDR1b, human; full-length cDNA in pRK5; also called TM cysteine mutant, residue 420; source: HEK293, transiently transfected, in lysate
stoichiometry N: ~4

B3: DDR1 residue 419 to cysteine (in the C287S background) (receptor, human, UniProt Q08345 19-913, looked up)
chain: DADMKGHFDPAKCRYALGMQDRTIPDSDISASSSWSDSTAARHSRLESSDGDGAWCPAGSVFPKEEEYLQVDLQRLHLVALVGTQGRHAGGLGKEFSRSYRLRYSRDGRRWMGWKDRWGQEVISGNEDPEGVVLKDLGPPMVARLVRFYPRADRVMSVCLRVELYGCLWRDGLLSYTAPVGQTMYLSEAVYLNDSTYDGHTVGGLQYGGLGQLADGVVGLDDFRKSQELRVWPGYDYVGWSNHSFSSGYVEMEFEFDRLRAFQAMQVHSNNMHTLGARLPGGVECRFRRGPAMAWEGEPMRHNLGGNLGDPRARAVSVPLGGRVARFLQCRFLFAGPWLLFSEISFISDVVNNSSPALGGTFPPAPWWPPGPPPTNFSSLELEPRGQQPVAKAEGSPTAICIGCLVAIILLLLLIIALMLWRLHWRRLLSKAERRVLEEELTVHLSVPGDTILINNRPGPREPPPYQEPRPRGNPPHSAPCVPNGSALLLSNPAYRLLLATYARPPRGPGPPTPAWAKPTNTQAYSGDYMEPEKPGAPLLPPPPQNSVPHYAEADIVTLQGVTGGNTYAVPALPPGAVGDGPPRVDFPRSRLRFKEKLGEGQFGEVHLCEVDSPQDLVSLDFPLNVRKGHPLLVAVKILRPDATKNARNDFLKEVKIMSRLKDPNIIRLLGVCVQDDPLCMITDYMENGDLNQFLSAHQLEDKAAEGAPGDGQAAQGPTISYPMLLHVAAQIASGMRYLATLNFVHRDLATRNCLVGENFTIKIADFGMSRNLYAGDYYRVQGRAVLPIRWMAWECILMGKFTTASDVWAFGVTLWEVLMLCRAQPFGQLTDEQVIENAGEFFRDQGRQVYLSRPPACPQGLYELMLRCWSRESEQRPPFSQLHRFLAEDALNTV
notes: discoidin domain receptor 1, isoform DDR1b, human; full-length cDNA in pRK5; also called TM cysteine mutant, residue 419; source: HEK293, transiently transfected, in lysate
stoichiometry N: ~4

B4: DDR1 G421C (in the C287S background) (receptor, human, UniProt Q08345 19-913, looked up)
chain: DADMKGHFDPAKCRYALGMQDRTIPDSDISASSSWSDSTAARHSRLESSDGDGAWCPAGSVFPKEEEYLQVDLQRLHLVALVGTQGRHAGGLGKEFSRSYRLRYSRDGRRWMGWKDRWGQEVISGNEDPEGVVLKDLGPPMVARLVRFYPRADRVMSVCLRVELYGCLWRDGLLSYTAPVGQTMYLSEAVYLNDSTYDGHTVGGLQYGGLGQLADGVVGLDDFRKSQELRVWPGYDYVGWSNHSFSSGYVEMEFEFDRLRAFQAMQVHSNNMHTLGARLPGGVECRFRRGPAMAWEGEPMRHNLGGNLGDPRARAVSVPLGGRVARFLQCRFLFAGPWLLFSEISFISDVVNNSSPALGGTFPPAPWWPPGPPPTNFSSLELEPRGQQPVAKAEGSPTAILICCLVAIILLLLLIIALMLWRLHWRRLLSKAERRVLEEELTVHLSVPGDTILINNRPGPREPPPYQEPRPRGNPPHSAPCVPNGSALLLSNPAYRLLLATYARPPRGPGPPTPAWAKPTNTQAYSGDYMEPEKPGAPLLPPPPQNSVPHYAEADIVTLQGVTGGNTYAVPALPPGAVGDGPPRVDFPRSRLRFKEKLGEGQFGEVHLCEVDSPQDLVSLDFPLNVRKGHPLLVAVKILRPDATKNARNDFLKEVKIMSRLKDPNIIRLLGVCVQDDPLCMITDYMENGDLNQFLSAHQLEDKAAEGAPGDGQAAQGPTISYPMLLHVAAQIASGMRYLATLNFVHRDLATRNCLVGENFTIKIADFGMSRNLYAGDYYRVQGRAVLPIRWMAWECILMGKFTTASDVWAFGVTLWEVLMLCRAQPFGQLTDEQVIENAGEFFRDQGRQVYLSRPPACPQGLYELMLRCWSRESEQRPPFSQLHRFLAEDALNTV
notes: discoidin domain receptor 1, isoform DDR1b, human; full-length cDNA in pRK5; source: HEK293, transiently transfected, in lysate
stoichiometry N: ~4

B5: DDR1 A417C (in the C287S background) (receptor, human, UniProt Q08345 19-913, looked up)
chain: DADMKGHFDPAKCRYALGMQDRTIPDSDISASSSWSDSTAARHSRLESSDGDGAWCPAGSVFPKEEEYLQVDLQRLHLVALVGTQGRHAGGLGKEFSRSYRLRYSRDGRRWMGWKDRWGQEVISGNEDPEGVVLKDLGPPMVARLVRFYPRADRVMSVCLRVELYGCLWRDGLLSYTAPVGQTMYLSEAVYLNDSTYDGHTVGGLQYGGLGQLADGVVGLDDFRKSQELRVWPGYDYVGWSNHSFSSGYVEMEFEFDRLRAFQAMQVHSNNMHTLGARLPGGVECRFRRGPAMAWEGEPMRHNLGGNLGDPRARAVSVPLGGRVARFLQCRFLFAGPWLLFSEISFISDVVNNSSPALGGTFPPAPWWPPGPPPTNFSSLELEPRGQQPVAKAEGSPTCILIGCLVAIILLLLLIIALMLWRLHWRRLLSKAERRVLEEELTVHLSVPGDTILINNRPGPREPPPYQEPRPRGNPPHSAPCVPNGSALLLSNPAYRLLLATYARPPRGPGPPTPAWAKPTNTQAYSGDYMEPEKPGAPLLPPPPQNSVPHYAEADIVTLQGVTGGNTYAVPALPPGAVGDGPPRVDFPRSRLRFKEKLGEGQFGEVHLCEVDSPQDLVSLDFPLNVRKGHPLLVAVKILRPDATKNARNDFLKEVKIMSRLKDPNIIRLLGVCVQDDPLCMITDYMENGDLNQFLSAHQLEDKAAEGAPGDGQAAQGPTISYPMLLHVAAQIASGMRYLATLNFVHRDLATRNCLVGENFTIKIADFGMSRNLYAGDYYRVQGRAVLPIRWMAWECILMGKFTTASDVWAFGVTLWEVLMLCRAQPFGQLTDEQVIENAGEFFRDQGRQVYLSRPPACPQGLYELMLRCWSRESEQRPPFSQLHRFLAEDALNTV
notes: as for B4
stoichiometry N: ~4

B6: DDR1 residue 418 to cysteine (in the C287S background) (receptor, human, UniProt Q08345 19-913, looked up)
chain: DADMKGHFDPAKCRYALGMQDRTIPDSDISASSSWSDSTAARHSRLESSDGDGAWCPAGSVFPKEEEYLQVDLQRLHLVALVGTQGRHAGGLGKEFSRSYRLRYSRDGRRWMGWKDRWGQEVISGNEDPEGVVLKDLGPPMVARLVRFYPRADRVMSVCLRVELYGCLWRDGLLSYTAPVGQTMYLSEAVYLNDSTYDGHTVGGLQYGGLGQLADGVVGLDDFRKSQELRVWPGYDYVGWSNHSFSSGYVEMEFEFDRLRAFQAMQVHSNNMHTLGARLPGGVECRFRRGPAMAWEGEPMRHNLGGNLGDPRARAVSVPLGGRVARFLQCRFLFAGPWLLFSEISFISDVVNNSSPALGGTFPPAPWWPPGPPPTNFSSLELEPRGQQPVAKAEGSPTACLIGCLVAIILLLLLIIALMLWRLHWRRLLSKAERRVLEEELTVHLSVPGDTILINNRPGPREPPPYQEPRPRGNPPHSAPCVPNGSALLLSNPAYRLLLATYARPPRGPGPPTPAWAKPTNTQAYSGDYMEPEKPGAPLLPPPPQNSVPHYAEADIVTLQGVTGGNTYAVPALPPGAVGDGPPRVDFPRSRLRFKEKLGEGQFGEVHLCEVDSPQDLVSLDFPLNVRKGHPLLVAVKILRPDATKNARNDFLKEVKIMSRLKDPNIIRLLGVCVQDDPLCMITDYMENGDLNQFLSAHQLEDKAAEGAPGDGQAAQGPTISYPMLLHVAAQIASGMRYLATLNFVHRDLATRNCLVGENFTIKIADFGMSRNLYAGDYYRVQGRAVLPIRWMAWECILMGKFTTASDVWAFGVTLWEVLMLCRAQPFGQLTDEQVIENAGEFFRDQGRQVYLSRPPACPQGLYELMLRCWSRESEQRPPFSQLHRFLAEDALNTV
notes: as for B4
stoichiometry N: ~4
